Assay results published in paper PMC11162772, “FUS reads histone H3K36me3 to regulate alternative polyadenylation”.

Tests used:
FUS-ΔZNF = FUS-ΔZNF (UniProt P35637 1-421+454-526, internal_change); assay: MST; no significant decrease vs WT; MST: PBS with 0.05% BSA and 0.05% Tween-20, 5 nM Cy5-RNA, temperature not stated; nucleosome pull-down buffer not given; settings: protein: recombinant; tags: GST (pGEX-6p-2); label: 3' Cy5
[1] = molecular target: FUS P421L (so in the source) (UniProt P35637 1-526, P431L); assay: MST; slightly increased affinity vs WT; MST: PBS with 0.05% BSA and 0.05% Tween-20, 5 nM Cy5-RNA, temperature not stated; nucleosome pull-down buffer not given; settings: protein: recombinant; tags: GST (pGEX-6p-2); label: 3' Cy5
Chain of FUS P421L (so in the source) (P35637 whole entry P431L): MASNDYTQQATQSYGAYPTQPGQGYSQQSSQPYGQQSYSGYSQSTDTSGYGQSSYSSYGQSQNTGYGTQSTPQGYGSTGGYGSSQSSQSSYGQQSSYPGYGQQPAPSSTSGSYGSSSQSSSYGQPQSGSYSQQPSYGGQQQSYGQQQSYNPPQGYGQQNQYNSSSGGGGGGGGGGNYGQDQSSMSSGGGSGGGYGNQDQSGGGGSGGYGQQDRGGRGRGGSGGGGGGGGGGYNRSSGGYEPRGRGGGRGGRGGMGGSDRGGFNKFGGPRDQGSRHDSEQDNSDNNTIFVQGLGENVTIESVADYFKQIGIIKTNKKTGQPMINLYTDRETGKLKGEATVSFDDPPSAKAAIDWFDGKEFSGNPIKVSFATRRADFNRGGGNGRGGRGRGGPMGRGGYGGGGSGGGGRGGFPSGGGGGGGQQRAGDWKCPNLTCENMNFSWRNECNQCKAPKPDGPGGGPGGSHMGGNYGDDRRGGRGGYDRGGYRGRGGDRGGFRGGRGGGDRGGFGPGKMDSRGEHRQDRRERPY

Chain of FUS-ΔZNF (P35637 other isoform, or with tags, fused parts or gaps | mutant): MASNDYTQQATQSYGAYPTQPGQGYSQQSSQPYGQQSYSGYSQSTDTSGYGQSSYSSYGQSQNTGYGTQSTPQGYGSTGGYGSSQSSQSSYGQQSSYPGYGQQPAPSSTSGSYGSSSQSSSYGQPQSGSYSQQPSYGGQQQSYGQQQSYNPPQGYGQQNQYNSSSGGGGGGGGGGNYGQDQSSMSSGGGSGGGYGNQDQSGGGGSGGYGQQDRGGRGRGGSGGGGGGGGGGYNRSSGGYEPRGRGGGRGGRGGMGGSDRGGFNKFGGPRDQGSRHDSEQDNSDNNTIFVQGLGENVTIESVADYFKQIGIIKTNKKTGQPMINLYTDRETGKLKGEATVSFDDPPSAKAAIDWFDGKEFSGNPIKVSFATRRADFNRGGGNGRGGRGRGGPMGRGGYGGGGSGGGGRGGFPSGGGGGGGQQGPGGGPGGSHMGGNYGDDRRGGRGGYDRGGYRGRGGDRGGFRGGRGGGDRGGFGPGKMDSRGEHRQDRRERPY

| Binder | binding result (FUS-ΔZNF) | binding result [1] |
| --- | --- | --- |
| UUAGGGUUAGGGUUAGGGUUAGGG (ssRNA) [4XUUAGGG-3'Cy5] | binds | – |
| GGUGGGUGGGUGGGUGGGUG (ssRNA) [5XGGUG-3'Cy5] | binds | binds |
